What is called EC50 is the concentration that produces a half-maximal response. Lower therefore signals a more potent agent.

The experiment deals with γ9δ2 TCR on human γ9δ2 T cells (human) (UniProt Q99603). Briefly: FACS, serially diluted antibody on γ9δ2 T cells, anti-human Fc secondary. Background: A flow cytometer gives signals particle by particle.
γ9δ2 TCR on human γ9δ2 T cells (human), sequence (Q99603 21-122, stated change not applied, chain 1 of 2): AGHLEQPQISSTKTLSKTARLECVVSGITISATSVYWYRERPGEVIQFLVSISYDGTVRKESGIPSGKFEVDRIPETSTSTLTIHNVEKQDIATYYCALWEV
γ9δ2 TCR on human γ9δ2 T cells (human), sequence (A0JD36 20-115, stated change not applied, chain 2 of 2, further chain): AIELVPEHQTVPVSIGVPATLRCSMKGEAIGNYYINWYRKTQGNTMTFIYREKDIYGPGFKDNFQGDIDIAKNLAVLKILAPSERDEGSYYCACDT

B1: SDP01369 (antibody, human IgG1, kappa, V domains shown)
VH: EVQLVESGGGLVKPGGSLRLSCAASGFTFSSYAMSWVRQAPGKRLEWVASISSGGSTYYPDSVKGRFTISRDNAKNSLYLQMNSLRAEDTAVYYCARDGYPPFDYWGQGTTVTVSS
VL: DIQMTQSPSSVSASVGDRVTITCKASQNVGTNVAWYQQKPGKAPKALIYSASYRYSGVPSRFSGSGSGTDFTLTISSLQPEDFATYYCQQYNSFPLTFGQGTKLEIKR
B1 registered an EC50 of 1.74 nM and a Max MFI of 15000 MFI.
